Assay results: doi:10.1101/2022.04.26.489605 (bioRxiv, 2022)
Several values for one entry are separate records, joined by “and”; a condition that tells them apart may be missing. Identical values can stand only once. One block for each molecule: values may come before it.

What was measured:
[1] = molecular target: human leucine-rich repeat kinase 2 (LRRK2), full-length, recombinant (human) (UniProt Q5S007); experiment: cryo-EM structure
[2] = molecular target: human leucine-rich repeat kinase 2 (LRRK2), full-length, recombinant (human, UniProt Q5S007 1-2527, R50H | S1647T | M2397T); experiment: cryo-EM structure
Sequence of human leucine-rich repeat kinase 2 (LRRK2), full-length, recombinant (Q5S007 whole entry R50H/S1647T/M2397T): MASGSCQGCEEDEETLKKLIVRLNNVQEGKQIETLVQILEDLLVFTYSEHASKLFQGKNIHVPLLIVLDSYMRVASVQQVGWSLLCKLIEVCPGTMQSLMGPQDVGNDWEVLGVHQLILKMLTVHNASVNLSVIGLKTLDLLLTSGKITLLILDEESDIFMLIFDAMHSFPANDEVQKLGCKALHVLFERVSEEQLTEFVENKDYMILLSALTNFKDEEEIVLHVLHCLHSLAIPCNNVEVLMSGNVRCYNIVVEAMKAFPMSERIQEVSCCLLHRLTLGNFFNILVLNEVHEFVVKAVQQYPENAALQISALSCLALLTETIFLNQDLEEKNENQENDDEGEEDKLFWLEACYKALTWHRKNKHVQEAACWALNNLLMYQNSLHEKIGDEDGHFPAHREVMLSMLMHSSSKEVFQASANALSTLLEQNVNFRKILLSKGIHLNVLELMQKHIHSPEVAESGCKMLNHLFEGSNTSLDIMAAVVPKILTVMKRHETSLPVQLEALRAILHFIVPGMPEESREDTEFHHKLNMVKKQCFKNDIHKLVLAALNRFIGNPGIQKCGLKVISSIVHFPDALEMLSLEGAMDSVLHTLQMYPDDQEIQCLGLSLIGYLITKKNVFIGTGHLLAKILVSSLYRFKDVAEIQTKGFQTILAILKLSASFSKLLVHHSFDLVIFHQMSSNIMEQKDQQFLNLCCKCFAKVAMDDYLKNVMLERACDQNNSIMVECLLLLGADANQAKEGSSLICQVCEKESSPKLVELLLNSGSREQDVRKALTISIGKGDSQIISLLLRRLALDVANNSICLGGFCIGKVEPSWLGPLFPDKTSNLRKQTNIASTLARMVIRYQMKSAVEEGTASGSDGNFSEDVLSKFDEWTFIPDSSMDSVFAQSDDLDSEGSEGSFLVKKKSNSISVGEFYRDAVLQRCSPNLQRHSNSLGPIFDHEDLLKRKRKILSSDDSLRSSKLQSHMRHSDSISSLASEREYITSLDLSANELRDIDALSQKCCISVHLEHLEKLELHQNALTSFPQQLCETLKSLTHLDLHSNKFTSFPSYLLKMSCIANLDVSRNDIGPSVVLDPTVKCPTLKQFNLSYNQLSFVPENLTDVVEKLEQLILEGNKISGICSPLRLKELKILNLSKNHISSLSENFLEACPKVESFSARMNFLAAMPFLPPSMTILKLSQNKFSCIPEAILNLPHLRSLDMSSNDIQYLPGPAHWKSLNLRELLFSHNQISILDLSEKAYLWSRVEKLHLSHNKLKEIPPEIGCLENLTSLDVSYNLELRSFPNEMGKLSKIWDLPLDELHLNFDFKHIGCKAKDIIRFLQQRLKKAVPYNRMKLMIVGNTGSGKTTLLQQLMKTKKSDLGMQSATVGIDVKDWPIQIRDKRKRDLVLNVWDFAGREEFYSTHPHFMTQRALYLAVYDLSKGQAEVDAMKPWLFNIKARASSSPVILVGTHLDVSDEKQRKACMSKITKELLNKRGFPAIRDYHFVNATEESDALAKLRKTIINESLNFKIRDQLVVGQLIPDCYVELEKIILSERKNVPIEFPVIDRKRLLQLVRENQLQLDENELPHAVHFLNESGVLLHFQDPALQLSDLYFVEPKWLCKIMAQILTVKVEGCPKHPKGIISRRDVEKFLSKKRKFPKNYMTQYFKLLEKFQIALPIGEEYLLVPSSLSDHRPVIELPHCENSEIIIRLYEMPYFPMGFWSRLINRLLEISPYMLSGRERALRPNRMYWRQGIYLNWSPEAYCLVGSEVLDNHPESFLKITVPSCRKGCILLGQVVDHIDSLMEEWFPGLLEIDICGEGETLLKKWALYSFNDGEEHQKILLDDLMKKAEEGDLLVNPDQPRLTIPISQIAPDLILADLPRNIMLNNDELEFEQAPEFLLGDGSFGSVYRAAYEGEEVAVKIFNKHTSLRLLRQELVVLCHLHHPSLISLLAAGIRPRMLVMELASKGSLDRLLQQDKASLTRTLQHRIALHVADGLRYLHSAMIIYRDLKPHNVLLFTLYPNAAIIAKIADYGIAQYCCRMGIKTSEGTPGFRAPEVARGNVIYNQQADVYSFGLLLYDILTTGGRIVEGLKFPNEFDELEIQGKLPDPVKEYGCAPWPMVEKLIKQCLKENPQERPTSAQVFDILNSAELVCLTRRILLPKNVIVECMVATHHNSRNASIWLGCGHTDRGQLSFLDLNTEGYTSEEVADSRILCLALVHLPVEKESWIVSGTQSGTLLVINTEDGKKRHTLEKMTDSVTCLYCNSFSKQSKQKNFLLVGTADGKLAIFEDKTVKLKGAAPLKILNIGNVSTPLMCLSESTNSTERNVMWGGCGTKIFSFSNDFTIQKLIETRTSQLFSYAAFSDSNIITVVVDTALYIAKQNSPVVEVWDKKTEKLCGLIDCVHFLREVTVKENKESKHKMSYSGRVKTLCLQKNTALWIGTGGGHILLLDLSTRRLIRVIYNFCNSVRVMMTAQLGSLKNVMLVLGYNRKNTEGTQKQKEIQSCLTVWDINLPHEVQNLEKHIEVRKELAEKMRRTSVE

stoichiometry N (LRRK2 protomers) [1]: 2 and 4
Molecule: human leucine-rich repeat kinase 2 (LRRK2), full-length, recombinant, Q5S007 1-2527

stoichiometry N [2]: 1 Rab29 per LRRK2
B1: Rab29 (residues 1-177) Q67L/T71A/S72A, GST tag removed (domain or fragment, human, UniProt O14966 1-177, looked up)
chain: MGSRDHLFKVLVVGDAAVGKTSLVQRYSQDSFSKHYKSTVGVDFALKVLQWSDYEIVRLQLWDIAGLERFAAMTRLYYRDASACVIMFDVTNATTFSNSQRWKQDLDSKLTLPNGEPVPCLLLANKCDLSPWAVSRDQIDRFSKENGFTGWTETSVKENKNINEAMRVLIEKMMRNS
